Measurements reported in the supplement of paper PMC10567573.

B1: CDC14A (parent)
chain: LNLAMVYRYCCKLNKKLKSYSLSR
B2: TRIM63 (parent)
chain: FRCPTCRHEVIMDRHGVYGLQRNL

Variants of: B1
Assay: protein stability index of a GFP-peptide fusion (GPS, HEK-293T) (PSI 1-6); higher = more stable
Details: c terminus: a fixed tail appended
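Further: lentivirally expressed fusions sorted by FACS into six bins by GFP to DsRed ratio, PSI derived from sequencing read proportions per bin multiplied by bin number.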

Protein stability index, by site and new letter:
Y20: P 4.23; H 3.02; V 2.52; C 3.44; L 2.94; T 2.42; I 3.15; W 3.32; R 2.17; A 2.61; D 3.34; N 2.16; Q 3.1; K 3.24; S 2.63
R24: I 3.79; Q 4.16; M 2.37; G 2.21; K 2.13; C 3.05; S 2.19; N 3.15; V 3.52; A 3.55; H 2.69; F 2.97; W 3.11; D 3.64; P 2.59; L 3.97; E 2.72; Y 3.41; T 1.99
S19: W 3.46; P 2.75; N 2.8; Q 1.51; R 3.44
L22: Y 4.37; A 4.08; G 3.46; C 2.92; D 2.2; V 1.04; N 1.75; P 2.24; F 3.36; I 3.6; W 2.76; E 1.85; S 3.58; H 3.37; T 2.8; R 2.31; K 2.39
S21: G 2.26; H 2.13; C 3.76; Y 2.62; I 3.96; V 4.29; Q 2.86; F 2.38; D 2.01; T 2.92; P 3.64; E 3.12; M 3.42; L 2.25; A 3.27; N 2.51; W 2.86
S23: W 3.77; A 3.5; K 3.42; V 2.77; T 3.09; R 4.26; F 2.69; G 2.2; E 4.66; P 2.95; Y 2.97; C 2.49; L 2.37; N 2.35; Q 2.53; H 2.36; I 3.46; D 2.55

Variants of: B2
Assay: as above
Details: c terminus: a fixed tail appended

Protein stability index of substitutions, site by site:
F1: D 2.76; H 2.39; A 1.16; V 2.15; P 3.34; C 2.44; K 2.91; G 1.38; L 3.27; I 1.47; W 2.14; E 2.69; T 3.56; S 2.62; N 3.53; Y 1.96; M 2.72
C3: S 2.41; N 3.22; W 2.18; V 2.12; G 2.15; R 1.54; I 2.6; E 2.04; L 2.9; F 3.62; A 3.2; Y 3.25; Q 1.78; P 1.94; T 1.52; H 4.77; K 1.74; D 1.7; M 4.35
R2: P 1.56; W 2.42; Q 1.84; I 2.79; V 1.86; K 1.77; M 2.58; D 3.32; Y 1.87; C 2.58; L 1.98; A 2.96; E 2.55; H 2.17; F 3.38; T 2.05; G 3.06; N 1.44; S 1.4
P4: G 1.38; Y 2.74; R 2.18; E 2.16; Q 3.65; S 2.93; D 2.24; I 3.9; A 2.38; V 2.99; F 3.47; T 3.2; K 2.67; N 3.06; H 3.24
T5: A 2.39; H 3.16; D 3.7; C 2.14; G 1.33; F 2.32
